The assay deals with HCV NS5B (RNA-dependent RNA polymerase), JFH1 (Hepatitis C virus (JFH1)). The experiment in a line: proximity ligation.

In turn, “ATG5-12 conjugate (from UniProt Q9H1Y0 1-275; O94817 1-140) (complex)” gave a PLA interaction signals per infected cell (signals per infected cell) of 380.

The values above are taken from article PMC6171931.
